Measurements from publication PMC10638397, “Engineering sulfonate group donor regeneration systems to boost biosynthesis of sulfated compounds” (Nature Communications, 2023).

Assays:
[1] = substrate: Nc1ncnc2c1ncn2[C@@H]1O[C@H](COP(=O)(O)OS(=O)(=O)O)[C@@H](O)[C@H]1O; test: purified protein; details: Mg2+, pH 7.5, 35 °C (general assay), acceptor not given
[2] = substrate: Nc1ncnc2c1ncn2[C@@H]1O[C@H](COP(=O)(O)OS(=O)(=O)O)[C@@H](OP(=O)(O)O)[C@H]1O; test: sulfotransferase kinetics, HPLC-MS; assay type: biochemical, Rattus norvegicus; details: Mg2+, pH 7.5, 35 °C (general assay), acceptor not given
Source text: sulfotransferase kinetics, HPLC-MS on aryl sulfotransferase IV (AST IV)

[3] = substrate: Nc1ncnc2c1ncn2[C@@H]1O[C@H](COP(=O)(O)OS(=O)(=O)O)[C@@H](OP(=O)(O)O)[C@H]1O; test: sulfotransferase kinetics, HPLC-MS; assay type: biochemical, Mus musculus; details: Mg2+, pH 7.5, 35 °C (general assay), acceptor not given
[4] = substrate: Nc1ncnc2c1ncn2[C@@H]1O[C@H](COP(=O)(O)OS(=O)(=O)O)[C@@H](OP(=O)(O)O)[C@H]1O; test: sulfotransferase kinetics, HPLC-MS; assay type: biochemical, Mycolicibacterium smegmatis; details: sulfonate acceptor trehalose, Mg2+, pH 7.5, 35 °C (general assay)
Source text: sulfotransferase kinetics, HPLC-MS on trehalose sulfotransferase (Stf0)

B1: aryl sulfotransferase IV (AST IV) (Rattus norvegicus) (protein)
chain: MEFSRPPLVHVKGIPLIKYFAETIGPLQNFTAWPDDLLISTYPKSGTTWMSEILDMIYQGGKLEKCGRAPIYARVPFLEFKCPGVPSGLETLEETPAPRLLKTHLPLSLLPQSLLDQKVKVIYIARNAKDVVVSYYNFYNMAKLHPDPGTWDSFLENFMDGEVSYGSWYQHVKEWWELRHTHPVLYLFYEDIKENPKREIKKILEFLGRSLPEETVDSIVHHTSFKKMKENCMTNYTTIPTEIMDHNVSPFMRKGTTGDWKNTFTVAQNERFDAHYAKTMTDCDFKFRCEL
notes: recombinant in E. coli; N-terminal GST fusion printed for the whole-cell work
Km [1]: 2450 ± 500 µM | kcat [1]: 0.00688 s⁻¹ | kcat/Km [1]: 2.81 M⁻¹ s⁻¹ | Km [2]: 1430 ± 172 µM | kcat [2]: 0.0131 ± 0.000614 s⁻¹ | kcat/Km [2]: 9.19 M⁻¹ s⁻¹

B2: estrogen sulfotransferase (EST) (Mus musculus) (protein)
chain: METSMPEYYEVFGEFRGVLMDKRFTKYWEDVEMFLARPDDLVIATYPKSGTTWISEVVYMIYKEGDVEKCKEDAIFNRIPYLECRNEDLINGIKQLKEKESPRIVKTHLPPKLLPASFWEKNCKMIYLCRNAKDVAVSYYYFLLMITSYPNPKSFSEFVEKFMQGQVPYGSWYDHVKAWWEKSKNSRVLFMFYEDMKEDIRREVVKLIEFLERKPSAELVDRIIQHTSFQEMKNNPSTNYTMMPEEMMNQKVSPFMRKGIIGDWKNHFPEALRERFDEHYKQQMKDCTVKFRMEL
Km [3]: 1560 ± 260 µM | kcat [3]: 0.00849 ± 0.000572 s⁻¹ | kcat/Km [3]: 5.44 M⁻¹ s⁻¹

B3: trehalose sulfotransferase (Stf0) (Mycolicibacterium smegmatis MC2 155) (protein)
chain: MSDHPTAYLVLASQRSGSTLLVESLRATGVAGEPQEFFQYLPNTSMSPQPREWFADVEDQSILRLLDPLIEGKPDLAPATIWRDYIQTVGRTPNGVWGGKLMWNQTPLLVQRAKDLPDRSGSGLLSAIRDVVGSDPVLIHIHRPDVVSQAVSFWRAVQTRVWRGRPDPVRDARAEYHAGAIAHVITMLRAQEEGWRAWFTEENVEPIDVDYPYLWRNLTEVVGTVLEALGQDPRLAPKPVLERQADQRSDEWVERYRRDAQRDGLPL
Km [4]: 820 ± 60 µM | kcat [4]: 0.00988 ± 0.00025 s⁻¹ | kcat/Km [4]: 12.1 M⁻¹ s⁻¹
